The test concerns the target HLA-A*02 (human). Description: UV-exchange b2m ELISA. (In an ELISA, binding on a coated surface is turned into a signal by an enzyme label.)
With ILVEGISTV, the peptide exchange yield was in the range of 50 to 75%.
FIIQGLRSVGA displayed a peptide exchange yield of 50 to 75%.
In the case of ALLAFFPGL, the peptide exchange yield is 50 to 75%.
YLLQSVNQLLL returned a peptide exchange yield of 20 to 49%.
Take SVDSHFQEV: the peptide exchange yield was 20 to 49%.
Molecule AIVDLIHDI gave a peptide exchange yield of 20 to 49%.
With VTFKEYVTV, the peptide exchange yield lay within 20 to 49%.
LLVSHLYLV: the peptide exchange yield was 20 to 49%.
Molecule GLLGSLFFL registered a peptide exchange yield of more than 75%.
In the case of VLNDILVRA, the peptide exchange yield fell in the range of 50 to 75%.
For ALLAKILQI the value was 50 to 75%; for FLFGGVLMTL, 20 to 49%.
As to QMFQYFITV, the peptide exchange yield was more than 75%.
With SLDPSVTHL, the peptide exchange yield fell in the range of 20 to 49%.
Turning to ALADFMLSL, the peptide exchange yield lay within 50 to 75%.
For TVVTRLDEI the value was 20 to 49%; for GVVDPVHGV, 20 to 49%.
For QLWQFLVTL the value was 50 to 75%; for YLVSEIFKA, 50 to 75%; for FLQDLEQRL, 50 to 75%.
Molecule GLLFSLRSV had a peptide exchange yield of more than 75%.
Consider ILGEVLAQL, for which the peptide exchange yield was in the range of 50 to 75%.
As for FLERGLESA, the peptide exchange yield lay within 20 to 49%.
The molecule RLQDILWFL yielded a peptide exchange yield of more than 75%.
The molecule ALISWQPPRA gave a peptide exchange yield of 50 to 75%.
QLAPVFQRV came in with a peptide exchange yield of 20 to 49%.
For LLVPTSGIYFV, the peptide exchange yield lay in the range of 50 to 75%.
Regarding ALCPRIHEV, the peptide exchange yield was more than 75%.
As to KLYEADFVL, the peptide exchange yield lay in the range of 20 to 49%.
As for TQSPATLSV, the peptide exchange yield is 20 to 49%.
VLLDIQEVFQI: the peptide exchange yield lay within 50 to 75%.
Turning to SLADYEHFV, the peptide exchange yield was more than 75%.
Take KVMATIEKV: the peptide exchange yield is 20 to 49%.
TLIDEQDIPLV: the peptide exchange yield is 50 to 75%.
In the case of FLLGVSKEV it was 50 to 75%.
Consider YLMDDTVEI, for which the peptide exchange yield is more than 75%.
For ALLGMIIVGV, the peptide exchange yield was less than 20%.
In turn, VLYDRPLKI registered a peptide exchange yield of 50 to 75%.
In the case of SLGKFTFDV it was more than 75%.
Take GLAVPTPSV: the peptide exchange yield was in the range of 50 to 75%.
For LLLPAVPVGA the value was 50 to 75%; for AVGPVHNSV, 20 to 49%; for HLSTIIHEA, 50 to 75%.
For ILLKNLVTI, the peptide exchange yield was 20 to 49%.
For SLLGGTFVGI, the peptide exchange yield is 50 to 75%.
The molecule GQASYFYVA returned a peptide exchange yield of 20 to 49%.
As to FTIFRTISV, the peptide exchange yield lay in the range of 50 to 75%.
KLDGNELDL: the peptide exchange yield lay within 50 to 75%.
For SLDPDTLPAV the value was 20 to 49%; for MLAGIAITV, 50 to 75%.
Consider FIFDEAEKL, for which the peptide exchange yield was less than 20%.
On to KMPDVELFV, for which the peptide exchange yield was 50 to 75%.
As to YLWATIQRI, the peptide exchange yield is 50 to 75%.
ALLPRLHQL displayed a peptide exchange yield of more than 75%.
Consider FINDSIVYL, for which the peptide exchange yield fell in the range of 50 to 75%.
In turn, TIYKDFVYI registered a peptide exchange yield of 20 to 49%.
ALHFSEDEI had a peptide exchange yield of 20 to 49%.
In the case of FLLPTGAEA it was 20 to 49%; in that of AQADHLPQL, 20 to 49%; in that of FLDKVLVAA, 50 to 75%.
VTPVTVSAV displayed a peptide exchange yield of less than 20%.
For VLDPALPALV the value was 20 to 49%; for ALLPELREV, 50 to 75%; for ALLGTKILL, 50 to 75%.
QLIQTLHAV registered a peptide exchange yield of 50 to 75%.
Take NALDKVLSV: the peptide exchange yield is 50 to 75%.
Molecule RLFPDFFTRVAL gave a peptide exchange yield of 20 to 49%.
Take ILNTHITEL: the peptide exchange yield was in the range of 50 to 75%.
In turn, VTSNSGILGV had a peptide exchange yield of 50 to 75%.

(Values after patent US20170165338A1.)
